From publication PMC7188906

B1: human ACKR4-EYFP [human] / fluorescently labeled human CCL19^Dy649P1 [modified: Dy649P1 (as CoA conjugate) attached site-specifically to the S6-tag by the phosphopantetheinyl transferase Sfp; Dy649P1 (as CoA conjugate) … (parent)
chain 1: GTNDAEDCCLSVTQKPIPGYIVRNFHYLLIKDGCRVPAVVFTTLRGRQLCAPPDQPWVERIIQRLQRTSAKMKRRSS
chain 2: MALEQNQSTDYYYEENEMNGTYDYSQYELICIKEDVREFAKVFLPVFLTIVFVIGLAGNSMVVAIYAYYKKQRTKTDVYILNLAVADLLLLFTLPFWAVNAVHGWVLGKIMCKITSALYTLNFVSGMQFLACISIDRYVAVTKVPSQSGVGKPCWIICFCVWMAAILLSIPQLVFYTVNDNARCIPIFPRYLGTSMKALIQMLEICIGFVVPFLIMGVCYFITARTLMKMPNIKISRPLKVLLTVVIVFIVTQLPYNIVKFCRAIDIIYSLITSCNMSKRMDIAIQVTESIALFHSCLNPILYVFMGASFKNYVMKVAKKYGSWRRQRQSVEEFPFDSEGPTEPTSTFSI

Variants of: B1
Assay: flow cytometry on cells
Details: with fluorescently labeled human CCL19^Dy649P1 [modified: Dy649P1 (as CoA conjugate) attached site-specifically to the S6-tag by the phosphopantetheinyl transferase; 25 nM CCL19Dy649P1 at 8°C; HeLa cells; read off a plot

Row | Variant | percent of parent
1 | chain 2 MALEQNQSTDYYYEENEMNGTYDYSQYELICIKEDVREFAKVFLPVFLTIVFVIGLAGNSMVVAIYAYYKKQRTKTDVYILNLAVADLLLLFTLPFWAVNAVHGWVLGKIMCKITSALYTLNFVSGMQFLACISIDRYVAVTKVPAQSGVGKPCWIICFCVWMAAILLSIPQLVFYTVNDNARCIPIFPRYLGTSMKALIQMLEICIGFVVPFLIMGVCYFITARTLMKMPNIKISRPLKVLLTVVIVFIVTQLPYNIVKFCRAIDIIYSLITSCNMSKRMDIAIQVTESIALFHSCLNPILYVFMGASFKNYVMKVAKKYGSWRRQRQSVEEFPFDSEGPTEPTSTFSI [chain 2 S146A] | 85 % of wt
2 | chain 2 MALEQNQSTDYYYEENEMNGTYDYSQYELICIKEDVREFAKVFLPVFLTIVFVIGLAGNSMVVAIYAYYKKQRTKTDVYILNLAVADLLLLFTLPFWAVNAVHGWVLGKIMCKITSALYTLNFVSGMQFLACISIDRYVAVTKVPSQAGVGKPCWIICFCVWMAAILLSIPQLVFYTVNDNARCIPIFPRYLGTSMKALIQMLEICIGFVVPFLIMGVCYFITARTLMKMPNIKISRPLKVLLTVVIVFIVTQLPYNIVKFCRAIDIIYSLITSCNMSKRMDIAIQVTESIALFHSCLNPILYVFMGASFKNYVMKVAKKYGSWRRQRQSVEEFPFDSEGPTEPTSTFSI [chain 2 S148A] | 85 % of wt
3 | chain 2 MALEQNQSTDYYYEENEMNGTYDYSQYELICIKEDVREFAKVFLPVFLTIVFVIGLAGNSMVVAIYAYYKKQRTKTDVYILNLAVADLLLLFTLPFWAVNAVHGWVLGKIMCKITSALYTLNFVSGMQFLACISIDRYVAVTKVPSQSGVGKPCWIICFCVWMAAILLSIPQLVFYTVNDNARCIPIFPRYLGTSMKALIQMLEICIGFVVPFLIMGVCYFITARTLMKMPNIKIARPLKVLLTVVIVFIVTQLPYNIVKFCRAIDIIYSLITSCNMSKRMDIAIQVTESIALFHSCLNPILYVFMGASFKNYVMKVAKKYGSWRRQRQSVEEFPFDSEGPTEPTSTFSI [chain 2 S236A] | 90 % of wt
4 | chain 2 MALEQNQSTDYYYEENEMNGTYDYSQYELICIKEDVREFAKVFLPVFLTIVFVIGLAGNSMVVAIYAYYKKQRTKTDVYILNLAVADLLLLFTLPFWAVNAVHGWVLGKIMCKITSALYTLNFVSGMQFLACISIDRYVAVTKVPSQSGVGKPCWIICFCVWMAAILLSIPQLVFYTVNDNARCIPIFPRYLGTSMKALIQMLEICIGFVVPFLIMGVCYFITARTLMKMPNIKISRPLKVLLTVVIVFIVTQLPYNIVKFCRAIDIIYSLITSCNMSKRMDIAIQVTESIALFHSCLNPILYVFMGAAFKNYVMKVAKKYGSWRRQRQSVEEFPFDSEGPTEPTSTFSI [chain 2 S309A] | 110 % of wt
5 | chain 2 MALEQNQSTDYYYEENEMNGTYDYSQYELICIKEDVREFAKVFLPVFLTIVFVIGLAGNSMVVAIYAYYKKQRTKTDVYILNLAVADLLLLFTLPFWAVNAVHGWVLGKIMCKITSALYTLNFVSGMQFLACISIDRYVAVTKVPSQSGVGKPCWIICFCVWMAAILLSIPQLVFYTVNDNARCIPIFPRYLGTSMKALIQMLEICIGFVVPFLIMGVCYFITARTLMKMPNIKISRPLKVLLTVVIVFIVTQLPYNIVKFCRAIDIIYSLITSCNMSKRMDIAIQVTESIALFHSCLNPILYVFMGAAFKNYVMKVAKKYGAWRRQRQAVEEFPFDSEGPTEPTSTFSI [chain 2 S309A S323A S330A] | 120 % of wt
6 | chain 2 MALEQNQSTDYYYEENEMNGTYDYSQYELICIKEDVREFAKVFLPVFLTIVFVIGLAGNSMVVAIYAYYKKQRTKTDVYILNLAVADLLLLFTLPFWAVNAVHGWVLGKIMCKITSALYTLNFVSGMQFLACISIDRYVAVTKVPSQSGVGKPCWIICFCVWMAAILLSIPQLVFYTVNDNARCIPIFPRYLGTSMKALIQMLEICIGFVVPFLIMGVCYFITARTLMKMPNIKISRPLKVLLTVVIVFIVTQLPYNIVKFCRAIDIIYSLITSCNMSKRMDIAIQVTESIALFHSCLNPILYVFMGASFKNYVMKVAKKYGAWRRQRQSVEEFPFDSEGPTEPTSTFSI [chain 2 S323A] | 87 % of wt
7 | chain 2 MALEQNQSTDYYYEENEMNGTYDYSQYELICIKEDVREFAKVFLPVFLTIVFVIGLAGNSMVVAIYAYYKKQRTKTDVYILNLAVADLLLLFTLPFWAVNAVHGWVLGKIMCKITSALYTLNFVSGMQFLACISIDRYVAVTKVPSQSGVGKPCWIICFCVWMAAILLSIPQLVFYTVNDNARCIPIFPRYLGTSMKALIQMLEICIGFVVPFLIMGVCYFITARTLMKMPNIKISRPLKVLLTVVIVFIVTQLPYNIVKFCRAIDIIYSLITSCNMSKRMDIAIQVTESIALFHSCLNPILYVFMGASFKNYVMKVAKKYGSWRRQRQAVEEFPFDSEGPTEPTSTFSI [chain 2 S330A] | 83 % of wt
8 | chain 2 MALEQNQSTDYYYEENEMNGTYDYSQYELICIKEDVREFAKVFLPVFLTIVFVIGLAGNSMVVAIYAYYKKQRTKTDVYILNLAVADLLLLFTLPFWAVNAVHGWVLGKIMCKITSALYTLNFVSGMQFLACISIDRYVAVAKVPSQSGVGKPCWIICFCVWMAAILLSIPQLVFYTVNDNARCIPIFPRYLGTSMKALIQMLEICIGFVVPFLIMGVCYFITARTLMKMPNIKISRPLKVLLTVVIVFIVTQLPYNIVKFCRAIDIIYSLITSCNMSKRMDIAIQVTESIALFHSCLNPILYVFMGASFKNYVMKVAKKYGSWRRQRQSVEEFPFDSEGPTEPTSTFSI [chain 2 T142A] | 90 % of wt
9 | chain 2 MALEQNQSTDYYYEENEMNGTYDYSQYELICIKEDVREFAKVFLPVFLTIVFVIGLAGNSMVVAIYAYYKKQRTKTDVYILNLAVADLLLLFTLPFWAVNAVHGWVLGKIMCKITSALYTLNFVSGMQFLACISIDRYVAVAKVPSQSGVGKPCWIICFCVWMAAILLSIPQLVFYTVNDNARCIPIFPRYLGTSMKALIQMLEICIGFVVPFLIMGVCYFITARALMKMPNIKISRPLKVLLTVVIVFIVTQLPYNIVKFCRAIDIIYSLITSCNMSKRMDIAIQVTESIALFHSCLNPILYVFMGASFKNYVMKVAKKYGSWRRQRQSVEEFPFDSEGPTEPTSTFSI [chain 2 T142A T226A] | 90 % of wt
